Assay: soluble on expression in E. coli; label from the status in PepcDB or PDB records

Sequence	soluble on expression in E. coli
MGSDKIHHHHHHMSIIMERQRGNQLLRIISEYMTNLKEKGQKLAKDNTMENLVNFTPRYNLIKSYLDDVERALDRSGLCYVKITFITLSKLLTGWSPIYFITEVPLAWDMILDTPYIAGSEIKGIVKNYFKEVTSNDKVESCLYGDEGKMGKVIFFNAYPIDGKNVLTYDIITPHYNGAKDEYNVKPIPIKFLAINKGITFKTYLAFDNKELNECGKDSLYLLLKTMIFSMRIGWGRKVTRGYGSLDIKEMDVKCHGE	not soluble
MSLGVEGEMQSFMSDMGVQANVTGPSAYQGQSAGYYSMGSVWSRFPQKNIQPFNLQLPHARAGCGGIDLFAGSFSFINTAELVAMLKATANNALGFAFKLAIDTISPEIGKVMDELAQKVQQMNQMNISSCETAQALVGGLWPKSDTASSVICEAIANSQGAVSDWARARQQCNNGGQREALKSANSDPDMKEQAGMPNNYTWAALGKKYGGFDTQFREFLMTLVGTVIYDPAGNGGKPRVQFIGPADPALISAMLDGTSSTPHKYWSCGGDSAKCMAPSEIDMVIGPNAAIKARVRTLIESMALKVRDPGASLTPAEIQLLGMASVPVYKIITVSAAAEFGISAQEINDLSEIVAVDLVTTMTMRFIDMAVNARSDFNGADADSLREWREGLYETRRNFLGIAARTSQRFDQTFALIQRTQMLEKTLRTQLSPQMSAALRFSRTLGSQVQEGHHHHHH	not soluble
MSVHPAVQSLCEQPIDTIGLTAVSAVASALGDVSTATDLIQRPEQEKALHDLLKKCMSILNNSGKNSALRLACLECLYVLSQPPIPAFRTGLLCNTLNSVNSSVEEMLARTGPSEAESSSSAREMFTVLVFRFTNYDTKVARLLLQHMCDGDVGTMMQTLLRVMVQHCETCEWPLLQAALQSLYELTVPTTYYATGKDGAAEPSFDSAATATGSSLQSFTVESFQDRIAVLLTEMRNHRLLEKLLASLRLSWHESTHNRSPPSLAQGCAESVALGALGCPDVAHTVTSASAEQQMELLNWLSAFTLLCRALDNMVEFCRDAKLAREVRARLLSDPSCHDWLASAAVPAVIAAIQVWMSDDGASATPAAISDGSAGPFATAKVKLSLLTAAVTLLRLLRFALYKPAMGFTAALLSSMGCLAAQVQRGEPHLRLQYGGMQVMLLTVECLVNMNAVAVTSPVNLSESYRGLLRTIAADKTRCTLSNCSSDVSSDHGAVAERQPDALMPVAEWFILCVREEESPFCDIDSGNASVALLHECFASEEARLQDAADRVADLAALESQLAMMQNFLLLMTLTELLSGLPDGGLERLTQPGPRRRNSATDAEQKPPNNSDSSSRRCKLSKKKVSHHPAAYVCDLTGKLMREPVVLKGGHRFEFDALQNVILQVGHVDPISGESIDEDVEVNIPLQQEIAAYRVKRASEKGGS	not soluble
MGSDKIHHHHHHSPTTTVTTTDASVTTTPPTTTPPTTAVVTDCTTCTAALITLTQGTDGAVDATPVEGVDATGCATITYTCENTPVDAQNVIFLTFYGGGIDRGVDQGTGSLNVLLNCVDGAWVRGGLVIDEILCQVI	not soluble
SLFKVGKVSYLNTLPLFYSLEGFEVVEGVPSELVEKLRRGEIHAGIVSSVEYFFNPQDYFILSGISISSRGSVCSVKLFSNEPMEKIREVNITKASLTSRELLFYLFEKKFGFVPKESEEAQAKLLIGDEAMEQKGYKFVYDLGEEWFKLHGLPFVFALFLVKRDADISKAKFLKKEIKKSVKNFFEEGIKNIKNKEYFKNCLDYSLGGEHIKSLINFYAYLSRKFKKQVPKLKFVL	soluble
MTTVFDVPAAEMIDKLAGILKENENVVPPQWAGNVKTGVHKDLPPTNDDWWYVRCAAVLRKIYTDGPIGIERLRSVYGGKKDNGSQPYHKAKGSGSIARKSVQQLEAAGFLQKVKDGRTVSAKGRSMMDNAAHELKQELLEKIPELAKYLEHHHHHH	soluble
MGHHHHHHMPEINTNHLDKQQVQLLAEMCILIDENDNKIGAETKKNCHLNENIEKGLLHRAFSVFLFNTENKLLLQQRSDAKITFPGCFTNTCCSHPLSNPAELEESDALGVRRAAQRRLKAELGIPLEEVPPEEINYLTRIHYKAQSDGIWGEHEIDYILLVRMNVTLNPDPNEIKSYCYVSKEELKELLKKAASGEIKITPWFKIIAATFLFKWWDNLNHLNQFVDHEKIYRM	soluble
MGSDKIHHHHHHVTQNSPRQLSLPVYLPDDETFQSYYPASGNDELIQKLQASAQGGLSSSLYIYGPVKSGRTHLMHAACALANDKDRRTLYIPLGIHASISPALFEGLESLELICIDDIDAIAGHPIWEEAIFHLYNRIAEHKDCHLIVSGKASPTEAGFLLPDLVSRMQWGLIYQLQPMADDEKLLALQRRAAMRGLQLSDEVGRFLLTRMARDLRTLFDVLDKLDKASMVHQRKLTIPFIKEMLRL	not soluble
MIKRFLEDTTDDGELSKFVKDFSGNASCHPPEAKTWASRPQVPEPRPQAPDLYDDDLEFRPPSRPQSSDNQQYFCAPAPLSPSARPRSPWGKLDPYDSSEDDKEYVGFATLPNQVHRKSVKKGFDFTLMVAGESGLGKSTLVNSLFLTDLYRDRKLLGAEERIMQTVEITKHAVDIEEKGVRLRLTIVDTPGFGDAVNNTECWKPVAEYIDQQFEQYFRDESGLNRKNIQDNRVHCCLYFISPFGHGLRPLDVEFMKALHQRVNIVPILAKADTLTPPEVDHKKRKIREEIEHFGIKIYQFPDCDSDEDEDFKLQDQALKESIPFAVIGSNTVVEARGRRVRGRLYPWGIVEVENPGHCDFVKLRTMLVRTHMQDLKDVTRETHYENYRAQCIQSMTRLVVKERNRNKLTRESGTDFPIPAVPPGTDPETEKLIREKDEELRRMQEMLHKIQKQMKENY	not soluble
MGSDKIHHHHHHMLLGRTANGLYWMNRYIERAENMARLVDAGLRMALTRTQNASEEWNSVLLSAGSDVAFKQKYSDYTAADVADFLLRDTSNPSSTMSSIETARNNARMVRTALTRETWESINEAWMSLKRMLARPIDERDLPSVLDAIKRETALIRGSFYGTMLRNEIFDFSQLGTYVERADNTARILDVKYYVLLPSISWVGSTLDNYQWESILRSVSAHRSYRWVYDADYKPTNIADYLILNVRMPRSLTFCYRFLSEHLKFLSDDYGERHACHATAEKTQAMLRAGSIKDIFDAGLHEFLAGFIRDNTRLGDEIAQDYRFY	not soluble
MLPFLPEPSLSYTQQNRTAVLLLNLGTPDAPTAQAVRPYLKSFLTDRRIVELPKWLWYPILHGLVLTFRPKKSAHAYEKIWFKEGSPLEVYTARQAAALAERMPDLIVRHAMTYGNPSIADVLAELKSQGVGRLLAIPLYPQYAASSSGAAVDKVCEQLLLQRNQMSVRTISRFYDDAGYIDAMKNHILRYWAEHGRGKKLMLSFHGVPQKHYDLGDPYPDECRHTAKLLAEALELTEDEYTVSFQSQFGRAKWVTPSTQDLFGKLPKQGVTELDVFCPGFLADCLETMEEIALMGREQFYEAGGKNYRYIPCLNDNPDWIDALVALAEENLGGWR	not soluble
MKKLTIGLIGNPNSGKTTLFNQLTGSRQRVGNWAGVTVERKEGQFSTTDHQVTLVDLPGTYSLTTISSQTSLDEQIACHYILSGDADLLINVVDASNLERNLYLTLQLLELGIPCIVALNMLDIAEKQNIRIEIDALSARLGCPVIPLVSTRGRGIEALKLAIDRYKANENVELVHYAQPLLNEADSLAKVMPSDIPLKQRRWLGLQMLEGDIYSRAYAGEASQHLDAALARLRNEMDDPALHIADARYQCIAAICDVVSNTLTAEPSRFTTAV	soluble
MQRETGSERVDVDMEKPGMISRWYDDKGFGFILPKTGGEEVFLHISAFRGDRRPRQGDQVWFLASQDAQGRLRAERARLDALTIDPPTVRRGAQAPVTRAQARPAPTPPSALQRPLA	not soluble
MTDNTLTPQMLTGLSTDHLVVLSGAHRLQPQAAEAFQAMQQAAKVAGFDLQPASTFRDFGRQLAIWNGKFRGERPVLDQDSQPIDIFSLDTAARCEAILRWSALPGTSRHHWGSDLDIYDPSRLPTGEKLQLEPWEYDAGGYFYPLTQWLSAHMAEFGFYRPFATDNGGVAVEPWHLSYRPLAEQAEHLLTPKILLAAWQSQDVAGSEWLASHLPMIFSRFIYLK	not soluble
MGSDKIHHHHHHMSIQTPIRGLRSFCVASKCLSFKHAAAQLFLTPSAVSHQIKQLEEQLGFMLFKRNTRSIELTSSGKQFYQSIQPIIHQLESTISEFTHNQQNHTIVISLPEFFASELFIPRLSEWSEKNPSINLQLETVKAGSEPSQIADLSIVLANGKPNASIVQELFPIRYAAACNKKLYKKLKNSGFKALKNTPLILHRSRPWSWHQWAENLGVNDFDPKQIIQFDSMFGVARAAQQGMGIALVPLPMSKTWFSEQLLVKLFDEELNTNDRYYLIQHENMESKVELTLFANWVKETFMTDYL	not soluble
MTALSQLYPQPLWQWFEQICAIPHPSKHEQSLSQHIQAWAKQKQLDVVEDAVGNVIIRKAATPGMEDRKVVVIQAHIDMVPQKNADKVHDFIKDPIEAYVDGDWVKAKGTTLGADNGIGMASALAILGSDDIKHGPLEVLLTIDEEAGMTGAFGLQAGMLNAEILINTDSEQEGEIYMGCAGGVDAQITLPMVWQASEQSYASFSLHLSGLKGGHSGVNIHLGRGNANKILARFLFENADELALELTQFTGGSLRNAIPREANISFMLPAENIDALKEKVHAFEALMRAELAIADPDLRLVLSNIATPKRVMSENSQNTLIDLLHVCPNGVMRMSDEVTGVTETSLNVGVISTNDEEVGILCLIRSLIDSGRSQVEGMLNALTNLAGADVEFSGAYPGWKPDNTSPVMAIVRETYESIYHKEPVIMVIHAGLECGLFKKPYPEMDMVSIGPTIRYPHGPDEMVNITTVGQYWDLLVAVLERIPVKALEHHHHHH	not soluble
SLEKSGFIVHQKFDSILQLEDFDSLDRALKESESYYQKLPSNWKTQVRKTSYHKNQMLNSLKILKKILREKNPESRKIQFQNSFLLLETKDEALGRITAYYEVIIEGRFYPEGDFIYPVLETPSDLIVKKDGNKKSVGKIINEVFVPYETREELSHTSVWKKRSKAIVYVKIVDLHLAQLEGSAFVKVPDHIPFRITYSEDNGKEYQSPAESLKGICSSLIPSDLKSCILKYPKEVEMAILKNPRYIFFKLESSAPRGSGGIELIPKRSVAMDPGIPLGIPVLISFESSVLTEKNRIVFVHDRGSQITGHGRLDYFLGTGETAEYQAGKINTQGKIFLILPKIKN	not soluble
MPEFTNNPVAECDTVFSEKDGKKIVDFIIYPAKNGDQWVGTAVEAKSMGFGGELKVLVGFDAEGKIYNYSLLSHAETPGLGSKAADWFKEGNKGSIKGMNPGEQPLTVSKDGGQVDAITASTITSRAFLNAVNAAYGAYKGDGGANGTTGASQKAVQKSETAIVDSVVIKLEHHHHHH	soluble
MEKAYKILSVQENISHKKAKALIDSGLVSIGGKKLMVARKELPKNTHFSVQKVEKPSVIFEDENILALFKPPFIESYDLASFFKGWALLHRLDKETSGVVLLVKENSEFHLKAKKAFKDRAVKKEYLALTQGIIEEEREINAPILTFKTTKAFSKISKKGQEAVTIITPLKIINKKTLLKVGIKTGRTHQIRVHLKHINHPIIGDTLYNNEPSLAKRLMLHAHKIALLGYEFEAIAPKEFEILEHHHHHH	soluble
MSFTDNWSDEEFIRQMKELIGNEGDMHVTCNHSEGEQVTETHVTREKALWYRHNGDREGMLVCLNLSRVEVLNQRYFLGPCPF	not soluble

Reference: the DeepSol protein solubility set
